The values below come from publication PMC3899939, “IpsA, a novel LacI-type regulator, is required for inositol-derived lipid formation in Corynebacteria and Mycobacteria” (BMC Biology, 2013).

Where a chain is given by its changes, count along the chain named.

One data set has as its target T1, IpsA (Cg2910) (Corynebacterium glutamicum, UniProt Q8NMF0).
T1 construct: C-terminal STREP-tag variant (pAN6-ipsA-STREP), expressed in E. coli BL21(DE3), StrepTactin and gel filtration; 79 kDa, dimer
T1 sequence (Q8NMF0 1-358): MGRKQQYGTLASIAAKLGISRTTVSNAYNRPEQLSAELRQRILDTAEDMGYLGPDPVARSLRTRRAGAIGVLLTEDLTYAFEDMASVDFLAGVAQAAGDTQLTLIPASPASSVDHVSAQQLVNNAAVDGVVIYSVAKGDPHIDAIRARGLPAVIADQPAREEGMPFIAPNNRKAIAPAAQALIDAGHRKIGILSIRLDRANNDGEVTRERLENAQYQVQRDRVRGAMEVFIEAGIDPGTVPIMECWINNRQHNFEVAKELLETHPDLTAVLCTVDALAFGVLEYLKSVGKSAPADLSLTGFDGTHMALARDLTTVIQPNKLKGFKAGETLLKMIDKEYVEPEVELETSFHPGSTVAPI
The data set is described as follows: EMSA, dissociation of IpsA-DNA complex (ino1 promoter). Type of data set: binding. Conditions: effector; IpsA preincubated 20 min with effector, then DNA; 50 mM Tris-HCl pH 7.5, 40 mM KCl, 5 mM MgCl2, room temperature. On the technique in general: A gel shift assay detects complexes by their altered migration in electrophoresis.

The target of another data set is T2, IpsA-Strep (Corynebacterium glutamicum ATCC 13032, UniProt Q8NMF0 1-358).
T2 sequence: T1 sequence (Q8NMF0 1-358)
The data set is described as follows: EMSA; EMSA: 50 mM Tris-HCl pH 7.5, 40 mM KCl, 5 mM MgCl2, room temperature, 10 uL, DNA 0.028-1 uM, 10-15% native PAGE. The note with it: protein: recombinant; tags: C-terminal STREP-tag; chain copies: 2; blunt.

On to `O[C@H]1[C@H](O)[C@@H](O)[C@H](O)[C@@H](O)[C@H]1O` [myo-I, myo-inositol], for which the “lowest concentration with observed effect” value at IpsA (Cg2910) is 0.2 mM.

B1: cg3323 M3 (dsDNA)
DNA 1: TTGAGTTGCTTGCGAGATCAGGTCTGATTT
DNA 2: AAATCAGACCTGATCTCGCAAGCAACTCAA
For B1, in the data set with IpsA-Strep, the binding result is “no binding”.

B2: cg3323 M5 (dsDNA)
DNA 1: TTGAGTTGCTTGATCGATACTGTCTGATTT
DNA 2: AAATCAGACAGTATCGATCAAGCAACTCAA
For the molecule B2, the binding result with IpsA-Strep is “binds”.

B3: cg3323 WT 30-mer (dsDNA)
DNA 1: B2 DNA 1 with A19C, C20A, T21G
DNA 2: B2 DNA 2 with A10C, G11T, T12G
With B3, in the data set with IpsA-Strep, the binding result is “binds”.

B4: cg3323 M4 (dsDNA)
DNA 1: TTGAGTTGCTTGATCTCGCAGGTCTGATTT
DNA 2: AAATCAGACCTGCGAGATCAAGCAACTCAA
For the molecule B4, the binding result with IpsA-Strep is reported as “no binding”.
